Laboratory results from US20160272693A1 (ZEALAND PHARMA A S, published 2016).
*1 amine or outer side, *2 acyl side, *3 side chain or, on linkers, in order; H or OH if unused. Bridges are numbered along the chain shown (N, C = ends). [ ]: non-standard residue; d: D form. The star is where a group is joined. C20 diacid = O=C(O)CCCCCCCCCCCCCCCCCCC(=O)*; γGlu = O=C(O)[C@H](CCC(=O)[*:2])N[*:1]; Hyp = O=C(O)[C@@H]1C[C@@H](O)CN1; NMeI = CC[C@H](C)[C@H](NC)C(=O)O; Aad = N[C@@H](CCCC(=O)O)C(=O)O; Sar = CNCC(=O)O

B1: [19CD]-isoGlu-R-C( )-QTAT-C( )-ATDRLAHFLQRSSF-Gly(Me)-A-Ile(Me)-LSSTEVGSNTP-NH2 (Compd. 92) (peptide)
peptide: {C20 diacid}-[γGlu]RCQTATCATDRLAHFLQRSSF[Sar]A[NMeI]LSSTEVGSNTP-NH2
modifications: disulfide 3-8
SMILES: CC[C@H](C)[C@@H](C(=O)N[C@@H](CC(C)C)C(=O)N[C@@H](CO)C(=O)N[C@@H](CO)C(=O)N[C@H](C(=O)N[C@@H](CCC(=O)O)C(=O)N[C@H](C(=O)NCC(=O)N[C@@H](CO)C(=O)N[C@@H](CC(N)=O)C(=O)N[C@H](C(=O)N1CCC[C@H]1C(N)=O)[C@@H](C)O)C(C)C)[C@@H](C)O)N(C)C(=O)[C@H](C)NC(=O)CN(C)C(=O)[C@H](Cc1ccccc1)NC(=O)[C@H](CO)NC(=O)[C@H](CO)NC(=O)[C@H](CCCNC(=N)N)NC(=O)[C@H](CCC(N)=O)NC(=O)[C@H](CC(C)C)NC(=O)[C@H](Cc1ccccc1)NC(=O)[C@H](Cc1c[nH]cn1)NC(=O)[C@H](C)NC(=O)[C@H](CC(C)C)NC(=O)[C@H](CCCNC(=N)N)NC(=O)[C@H](CC(=O)O)NC(=O)[C@@H](NC(=O)[C@H](C)NC(=O)[C@@H]1CSSC[C@H](NC(=O)[C@H](CCCNC(=N)N)NC(=O)CC[C@H](NC(=O)CCCCCCCCCCCCCCCCCCC(=O)O)C(=O)O)C(=O)N[C@@H](CCC(N)=O)C(=O)N[C@@H]([C@@H](C)O)C(=O)N[C@@H](C)C(=O)N[C@@H]([C@@H](C)O)C(=O)N1)[C@@H](C)O
B2: [19CD]-isoGlu-R-C( )-QTAT-C( )-ATERLA-Aad-FLQRSSF-Gly(Me)-A-Ile(Me)-LSSTEVGSNTP-NH2 (Compd. 93) (peptide)
peptide: {C20 diacid}-[γGlu]RCQTATCATERLA[Aad]FLQRSSF[Sar]A[NMeI]LSSTEVGSNTP-NH2
modifications: disulfide 3-8
SMILES: CC[C@H](C)[C@@H](C(=O)N[C@@H](CC(C)C)C(=O)N[C@@H](CO)C(=O)N[C@@H](CO)C(=O)N[C@H](C(=O)N[C@@H](CCC(=O)O)C(=O)N[C@H](C(=O)NCC(=O)N[C@@H](CO)C(=O)N[C@@H](CC(N)=O)C(=O)N[C@H](C(=O)N1CCC[C@H]1C(N)=O)[C@@H](C)O)C(C)C)[C@@H](C)O)N(C)C(=O)[C@H](C)NC(=O)CN(C)C(=O)[C@H](Cc1ccccc1)NC(=O)[C@H](CO)NC(=O)[C@H](CO)NC(=O)[C@H](CCCNC(=N)N)NC(=O)[C@H](CCC(N)=O)NC(=O)[C@H](CC(C)C)NC(=O)[C@H](Cc1ccccc1)NC(=O)[C@H](CCCC(=O)O)NC(=O)[C@H](C)NC(=O)[C@H](CC(C)C)NC(=O)[C@H](CCCNC(=N)N)NC(=O)[C@H](CCC(=O)O)NC(=O)[C@@H](NC(=O)[C@H](C)NC(=O)[C@@H]1CSSC[C@H](NC(=O)[C@H](CCCNC(=N)N)NC(=O)CC[C@H](NC(=O)CCCCCCCCCCCCCCCCCCC(=O)O)C(=O)O)C(=O)N[C@@H](CCC(N)=O)C(=O)N[C@@H]([C@@H](C)O)C(=O)N[C@@H](C)C(=O)N[C@@H]([C@@H](C)O)C(=O)N1)[C@@H](C)O
B3: [19CD]-isoGlu-R-C( )-QTAT-C( )-ATDRLA-Aad-FLQRF-Gly(Me)-A-Ile(Me)-LSSTEVGSNT-Hyp-NH2 (Compd. 95) (peptide)
peptide: {C20 diacid}-[γGlu]RCQTATCATDRLA[Aad]FLQRF[Sar]A[NMeI]LSSTEVGSNT[Hyp]-NH2
modifications: disulfide 3-8
SMILES: CC[C@H](C)[C@@H](C(=O)N[C@@H](CC(C)C)C(=O)N[C@@H](CO)C(=O)N[C@@H](CO)C(=O)N[C@H](C(=O)N[C@@H](CCC(=O)O)C(=O)N[C@H](C(=O)NCC(=O)N[C@@H](CO)C(=O)N[C@@H](CC(N)=O)C(=O)N[C@H](C(=O)N1C[C@H](O)C[C@H]1C(N)=O)[C@@H](C)O)C(C)C)[C@@H](C)O)N(C)C(=O)[C@H](C)NC(=O)CN(C)C(=O)[C@H](Cc1ccccc1)NC(=O)[C@H](CCCNC(=N)N)NC(=O)[C@H](CCC(N)=O)NC(=O)[C@H](CC(C)C)NC(=O)[C@H](Cc1ccccc1)NC(=O)[C@H](CCCC(=O)O)NC(=O)[C@H](C)NC(=O)[C@H](CC(C)C)NC(=O)[C@H](CCCNC(=N)N)NC(=O)[C@H](CC(=O)O)NC(=O)[C@@H](NC(=O)[C@H](C)NC(=O)[C@@H]1CSSC[C@H](NC(=O)[C@H](CCCNC(=N)N)NC(=O)CC[C@H](NC(=O)CCCCCCCCCCCCCCCCCCC(=O)O)C(=O)O)C(=O)N[C@@H](CCC(N)=O)C(=O)N[C@@H]([C@@H](C)O)C(=O)N[C@@H](C)C(=O)N[C@@H]([C@@H](C)O)C(=O)N1)[C@@H](C)O

Target: T1, human amylin receptor 3 (hAMYR3), hCTR2 co-expressed with human receptor activity modifying protein 3 (hRAMP3) (human, UniProt P30988 25-474; O60896 24-148)
T1 sequence (looked up) 1: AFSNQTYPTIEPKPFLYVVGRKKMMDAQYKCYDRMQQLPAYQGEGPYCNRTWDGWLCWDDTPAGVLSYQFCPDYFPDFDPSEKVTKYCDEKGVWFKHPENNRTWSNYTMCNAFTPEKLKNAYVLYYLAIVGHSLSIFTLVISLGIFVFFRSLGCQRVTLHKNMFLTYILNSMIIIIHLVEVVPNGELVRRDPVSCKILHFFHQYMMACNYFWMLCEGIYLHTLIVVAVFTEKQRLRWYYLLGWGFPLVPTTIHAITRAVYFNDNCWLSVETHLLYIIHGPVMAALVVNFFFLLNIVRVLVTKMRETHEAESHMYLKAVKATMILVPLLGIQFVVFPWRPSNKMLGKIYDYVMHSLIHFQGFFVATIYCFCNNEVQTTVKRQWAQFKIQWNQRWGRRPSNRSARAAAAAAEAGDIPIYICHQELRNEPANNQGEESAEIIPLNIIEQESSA
T1 sequence (looked up) 2: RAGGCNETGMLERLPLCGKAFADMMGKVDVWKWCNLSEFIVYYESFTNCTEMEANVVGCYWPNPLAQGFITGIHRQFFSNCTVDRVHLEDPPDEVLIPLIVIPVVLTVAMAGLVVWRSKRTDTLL
Experiment: cell-based or functional assay

Binder | hAMYR3 EC50 (nM); cAMP induction
B1 | 0.22 nM
B2 | 0.43 nM
B3 | 0.2 nM
